The text below walks through data of patent US20150299314A1 (TORAY INDUSTRIES, published 2015).

Test [1] addresses T1, polypeptide set forth in SEQ ID NO: 430 (human).
T1 peptide: ATQVPLVSSTSEGYTA
Nature of the test: ELISA on 93 immobilized synthetic peptides of human CAPRIN-1, purified antibody 0.1 ug/mL. The protocol: Candidate peptides (93 peptides) each consisting of 12 to 16 amino acids of the amino acid sequence of the human CAPRIN-1 protein were synthesized and were each dissolved at a concentration of 1 mg/mL in DMSO. Each peptide was dissolved at a concentration of 30 μg/mL in a 0.1 M sodium carbonate buffer (pH 9.6). The solution was added to a 96-well plate (manufactured by Nunc, Product No. 436006) at 100 μL per well, followed by being left to stand at 4° C. overnight. The solution was removed, and 200 μL of 10 mM ethanolamine/0.1 M sodium carbonate buffer (pH 9.6) was added to each well, followed by being left to stand at room temperature for 1 hour. The solution was removed, and each well was washed with PBS containing 0.5% Tween 20 (PBST) twice to prepare a peptide-immobilized plate. For confirmation, this plate was also provided with a well to which the CAPRIN-1 protein was immobilized in accordance with the method described above. Rabbit anti-CAPRIN-1 monoclonal antibody #1 purified to a concentration of 0.1 ug/mL by a usual method was added to the plate at an amount of 50 μL per well, followed by shaking at room temperature for 1 hour. The solution was removed, and each well was washed with PBST three times. […] The absorbance was measured at 450 nm and 595 nm with an absorption spectrometer. […]

Test [2] concerns the target T1, polypeptide set forth in SEQ ID NO: 430. Nature of the test: ELISA as in Example 13(1), purified antibody.
In test [3] the target is T2, peptide set forth in SEQ ID NO: 268 (human).
T2 peptide: FTSGEKEQVDEW
Nature of the test: ELISA on immobilized synthetic CAPRIN-1 peptides, culture supernatant.

In test [4] the target is T3, polypeptide set forth in SEQ ID NO: 266 (human).
T3 construct: Identified from ELISA on 93 synthetic peptides of 12 to 16 amino acids of human CAPRIN-1
T3 peptide: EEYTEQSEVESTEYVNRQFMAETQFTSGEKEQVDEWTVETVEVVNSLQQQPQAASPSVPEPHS
The description is as above.

Test [5] concerns the target T4, CAPRIN-1 protein expressed on the cell surface of human cancer cells (human, UniProt Q14444 2-709).
T4 construct: whole, on cells; Target of all flow cytometry and ADCC assays; the cell line is named under assay; also called human CAPRIN-1; cytoplasmic- and proliferation-associated protein 1
T4 sequence (looked up): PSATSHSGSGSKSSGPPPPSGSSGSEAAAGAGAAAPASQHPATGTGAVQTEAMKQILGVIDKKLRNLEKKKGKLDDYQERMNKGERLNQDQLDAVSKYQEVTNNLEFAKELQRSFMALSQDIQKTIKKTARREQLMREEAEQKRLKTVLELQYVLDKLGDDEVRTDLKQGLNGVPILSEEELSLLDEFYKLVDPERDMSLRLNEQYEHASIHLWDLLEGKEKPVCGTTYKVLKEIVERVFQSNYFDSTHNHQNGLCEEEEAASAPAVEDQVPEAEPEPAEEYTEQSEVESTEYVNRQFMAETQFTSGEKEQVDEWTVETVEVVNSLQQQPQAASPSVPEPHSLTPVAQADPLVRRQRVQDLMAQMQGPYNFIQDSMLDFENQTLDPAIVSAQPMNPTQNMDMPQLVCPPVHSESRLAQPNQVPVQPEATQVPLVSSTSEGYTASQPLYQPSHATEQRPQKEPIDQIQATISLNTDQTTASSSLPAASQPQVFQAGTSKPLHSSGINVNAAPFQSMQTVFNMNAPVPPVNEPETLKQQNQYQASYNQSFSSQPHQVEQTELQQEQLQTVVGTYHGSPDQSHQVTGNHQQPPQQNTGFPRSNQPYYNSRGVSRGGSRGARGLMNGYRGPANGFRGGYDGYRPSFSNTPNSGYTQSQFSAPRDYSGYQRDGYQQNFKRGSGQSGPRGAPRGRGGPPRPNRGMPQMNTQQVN
Nature of the test: flow cytometry, TGBC14TKB cells, culture supernatant, isotype control antibody as control. As to the method: Subsequently, a gallbladder cell line TGBC14TKB, which was confirmed to express a CAPRIN-1 gene, was investigated for whether or not a CAPRIN-1 protein is expressed on the surfaces of these cells. 1×10⁶ cells of TGBC14TKB were centrifuged with a 1.5-mL micro centrifugation tube. To the cells was added the culture supernatant (100 μL) containing any of anti-CAPRIN-1 mouse monoclonal antibodies #1 to #22 reacting to cancer cell surface produced in Example 4 and anti-CAPRIN-1 mouse-chicken chimeric antibodies #1 to #3 produced in the above (2), followed by being left to stand on ice for 1 hour. After washing with PBS, the cells were suspended in a FITC-labeled goat anti-mouse IgG antibody (manufactured by life technologies) diluted by 500-fold with PBS containing 0.1% FBS, followed by being left to stand on ice for 1 hour. After washing with PBS, the fluorescence intensity was measured with FACS Calibur available from Becton, Dickinson and Company. Separately, as a control, the same procedure as in above was performed using an iso-type control antibody, instead of the culture supernatants containing the anti-CAPRIN-1 mouse monoclonal antibodies #1 to #22 and the mouse-chicken chimeric antibodies #1 to #3. As a result, the fluorescence intensity in the cells to which any of the monoclonal antibodies #1 to #22 and the mouse-chicken chimeric antibodies #1 to #3 was added was 20% or more higher than that in the control in every case. Specifically, in the case of using mouse-chicken chimeric antibody #1, the fluorescence intensity was enhanced by 200% or more. […] The rate of increase in the fluorescence intensity is represented by the rate of increase in the mean fluorescence intensity (MFI value) in each cell and is calculated by the following calculation formula: […]

Test [6] addresses T4, CAPRIN-1 protein expressed on the cell …. Nature of the test: cell-based or functional assay.

B1: rabbit anti-CAPRIN-1 monoclonal antibody #1 (antibody, V domains shown)
VH: QSLEESGGDLVKPGASLTLTCTASGFSFSGSYYMSWVRQAPGKGLEWIAYIYIGDGVTAYANWAKGRFTISKASSTTVTLQMTSLTAADTATYFCARGNKLWGPGTLVTVSS
VL: DVVMTQTPASVEAAVGGTVTIKCQASQSISSYLAWYQQKPGQPPKRLIYDASNLDSGVPSRFKGSGSGTDFTITISDLECADAATYYCQCTAVSSATIYGNAFGGGTEVVVK
notes: rabbit hybridoma antibody
Consider B1, for which the binding result in test [1] is “binds”.

B2: human-rabbit chimeric anti-CAPRIN-1 antibody #1 (antibody, V domains shown)
VH: QSLEESGGDLVKPGASLTLTCTASGFSFSGSYYMSWVRQAPGKGLEWIAYIYIGDGVTAYANWAKGRFTISKASSTTVTLQMTSLTAADTATYFCARGNKLWGPGTLVTVSS
VL: DVVMTQTPASVEAAVGGTVTIKCQASQSISSYLAWYQQKPGQPPKRLIYDASNLDSGVPSRFKGSGSGTDFTITISDLECADAATYYCQCTAVSSATIYGNAFGGGTEVVVK
notes: also called human-rabbit chimeric anti-CAPRIN-1 monoclonal antibody #1
With B2, the binding result in test [2] is “binds”.

B3: mouse monoclonal antibody #5 (antibody, V domains shown)
VH: DAELVKPGASVKISCKASGYTFTDHSIHWVQQKPEQGLEWIGYISPGNGNIKYNEKFKGKATLTADKSSSTAYMQLNSLTSEDSAVYFCKRSLGRGGPYYFDYWGQGTTVTVSS
VL: DIVLTQAAPSLPVTPGESVSISCRSSKSLLHSNGNTYLYWFLQRPGQSPQLLIYRMSNLASGVPDRFSGSGSGTAFTLRISRVEAEDVGVYYCMQHREYPVTFGSGPN
notes: mouse hybridoma antibody; also called anti-CAPRIN-1 mouse monoclonal antibody #5; anti-CAPRIN-1 monoclonal antibody #5
Take B3: the binding result in test [3] and in test [4] was “binds” in each case. For the same molecule, the “rate of increase in mean fluorescence intensity over control” value in test [5] was no less than 20%. Further, the “cytotoxicity (ADCC, 51Cr release) on TGBC14TKB, human NK cells” value in test [6] is no less than 15%.
